For 3 molecules, Kd results are on record in PMC5745793 (2017).

As a reminder, the Kd is the equilibrium constant for the complex coming apart.

Assay [1] addresses CCR3 (Homo sapiens) (UniProt P51677). Particulars: cited from earlier work.
Assay [2] has the same target. Particulars: cited from earlier work. The source holds these as a separate data set.
Another assay has as its target T1, CCR3 (Homo sapiens, UniProt P51677).
T1 chain: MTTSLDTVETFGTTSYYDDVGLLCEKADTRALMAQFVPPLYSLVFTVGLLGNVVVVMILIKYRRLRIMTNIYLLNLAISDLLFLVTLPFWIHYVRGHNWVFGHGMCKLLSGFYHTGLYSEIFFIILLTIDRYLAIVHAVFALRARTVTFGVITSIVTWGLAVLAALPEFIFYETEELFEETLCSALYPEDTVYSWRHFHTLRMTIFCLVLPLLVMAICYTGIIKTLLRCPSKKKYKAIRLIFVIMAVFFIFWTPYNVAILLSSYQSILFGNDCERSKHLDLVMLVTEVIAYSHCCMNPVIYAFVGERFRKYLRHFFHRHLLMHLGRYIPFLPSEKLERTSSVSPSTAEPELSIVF
Kind of assay: QCM.

Read-outs that look alike come from different tables or passages of the source.

Turning to CCL11 (from UniProt P51671), the dissociation constant (Kd) with CCR3 (Homo sapiens) [1] was 370 nM.

As to CCL24 (from UniProt O00175), the Kd with CCR3 (Homo sapiens) [2] is 300 nM.

B1: CCL8 (protein)
chain: QPDSVSIPITCCFNVINRKIPIQRLESYTRITNIQCPKEAVIFKTKRGKEVCADPKERWVRDSMKHLDQIFQNLKP
In the assay with CCR3, B1 returned a Kd of 120 nM.
